From the supplement of paper PMC10567573
± gives the standard deviation.

Assay: protein stability index of a GFP-peptide fusion (GPS, HEK-293T) (PSI 1-6); higher = more stable
[1] = treatment: DMSO, c terminus: a fixed tail appended
[2] = treatment: MLN4924 1 uM, 8 h, c terminus: a fixed tail appended
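Note: 24-mer peptide tiles fused after GFP, lentivirally expressed, FACS-sorted into six equal bins by GFP/DsRed ratio, decoded by Illumina sequencing, PSI is the read-weighted mean bin number.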

| Sequence | protein stability index [1] | protein stability index [2] | protein stability index (treatment: DMSO, c terminus: native) | protein stability index (treatment: MLN4924 1 uM, 8 h, c terminus: native) |
| --- | --- | --- | --- | --- |
| VGNYRLKEYEKALKYVRGLLQTEP [FIS1] | 2.19 ± 0.22 | 2.5 ± 0.32 | – | – |
| SRGSPVRVKREFEPASAREAPASV [USP39] | 4.47 ± 0.32 | 4.49 ± 0.35 | – | – |
| VELYRIKFKESFAEMNRGSNEWKT [COX4I1] | 2.23 ± 0.29 | 2.07 ± 0.45 | – | – |
| QALRENTYPFLAMIMLKDRRMTVV [FAF2] | 2.23 ± 0.31 | 1.96 ± 0.21 | – | – |
| LEERRVKEVVKKHSQFIGYPITLY [HSP90AB1] | 2.48 ± 0.068 | – | – | – |
| GCIAAENCIGIRDFALHYCLHHVH [GAN] | 2.72 ± 0.25 | 2.53 ± 0.33 | – | – |
| SMISMGLFSIAPLIYGSMEMFPAA [JAGN1] | 3.08 ± 0.29 | 3.23 ± 0.32 | – | – |
| DALTKLEQGEPLWTLEDEIHSPAH [ZNF649] | 3.49 ± 0.35 | 3.65 ± 0.24 | – | – |
| FSTQYRCFSVSMLAGPNDRSDVEK [UFD1] | 2.68 ± 0.39 | 3.01 ± 0.57 | – | – |
| ARRLTRFTGVITQGRNSLWLSDWV [CPXM2] | 2.43 ± 0.24 | 2.38 ± 0.26 | – | – |
| NNGIFQINSRRWCSNLTPNVPNVC [SPACA3] | 2.6 ± 0.28 | 2.63 ± 0.25 | – | – |
| RNSTPPSLARNPAPGVLTNKRKTY [ZC2HC1A] | 4.86 ± 0.21 | 4.68 ± 0.17 | – | – |
| CICWSPFLVTMANIGINGNHSLET [PTGFR] | 2.82 ± 0.26 | 2.84 ± 0.73 | – | – |
| FAELSVDMEKILEIIRVILKLYEQ [CCNC] | 2.2 ± 0.12 | 2.69 ± 0.25 | – | – |
| RYFPAGNVVNEGFFEENVLPPKK [GLIPR2] | – | – | 4.72 ± 0.066 | 4.59 ± 0.38 |
| MDIKNSPSSLNSPSSYNCSQSILP [ESR2] | 3.8 ± 0.19 | 3.93 ± 0.29 | – | – |
| HDAQVRLYKEELEQTYHAKLENAR [LMNB1] | 3.99 ± 0.34 | 4.13 ± 0.14 | – | – |
| RPDTGDDAAGHGFCYCAGSHKRKR [GMCL1] | 3.81 ± 0.74 | 4.47 ± 0.55 | – | – |
| STVKDCATIFALSTMTSSVQIYNL [ATL3] | 3.08 ± 0.68 | 3.25 ± 0.59 | – | – |
| PETLPESSLFSVEANSSNSQKNEK [C8orf76] | 5.54 ± 0.14 | 5.41 ± 0.4 | – | – |
| SYPNPNEDKCPGNYTNPLKVQTVI [TMEM192] | 3.17 ± 0.36 | 3.29 ± 0.22 | – | – |
| KEAFDTIQEQKVVLEENGEKNQVQ [SASS6] | 5.49 ± 0.34 | 5.71 ± 0.11 | – | – |

| Sequence | protein stability index [1] | protein stability index [2] | protein stability index (treatment: DMSO, c terminus: native) | protein stability index (treatment: MLN4924 1 uM, 8 h, c terminus: native) |
| --- | --- | --- | --- | --- |
| MTMTTMPESLNSPVSGKAVFMEFG [DLX1] | 2.42 ± 0.16 | 2.57 ± 0.21 | – | – |
| VGYGDMHPVTIGGKIVGSLCAIAG [KCNA3] | 2.67 ± 0.11 | 2.26 ± 0.35 | – | – |
| EETGSRFHNCLIQLYCEKVQGLMK [VPS39] | 2.48 ± 0.45 | 2.45 ± 0.5 | – | – |
| YESDSSNHCMLSPSSSGHLADSDT [C18orf25] | 5.18 ± 0.33 | 5.28 ± 0.21 | – | – |
| PGESLECPAELRPQVPQPPSPAAV [TRAF3IP2] | 5.31 ± 0.077 | 5.18 ± 0.43 | – | – |
| VERDNMEEDNVEESEEEGPWEPPV [HDAC6] | 5.58 ± 0.19 | 5.25 ± 0.21 | – | – |
| SRGELIPISPSTEVGGSGIGTPPS [MYBL2] | 4.74 ± 0.28 | 4.8 ± 0.15 | – | – |
| RMSYGGSTCHAYSNTRDRYGRSWE [RBMY1A1] | 2.62 ± 0.21 | 2.46 ± 0.099 | – | – |
| YTPTAEDSAQMQNGGPSTPPASPP [ANKRD40] | 5.27 ± 0.22 | 5.16 ± 0.2 | – | – |
| LHVACELARPECLFLLLGHGASPG [ANKRD9] | 2.53 ± 0.61 | 2.44 ± 0.45 | – | – |
| SVIVLDINDNAPTFQSSVLRVGIP [PCDHGC5] | 2.18 ± 0.11 | 2.21 ± 0.081 | – | – |
| KCKKKITGEIMHALKMTWHVHCFT [PDLIM7] | 2.81 ± 0.81 | 2.7 ± 0.12 | – | – |
| ATFNCLNKRLAKYRMRNVHPKPKL [CLCN6] | 2.56 ± 0.15 | 2.8 ± 0.27 | – | – |
| DVVALLINHGAEVTCKDKKGYTPL [ANKRD44] | 2.33 ± 0.55 | 2.27 ± 0.48 | – | – |
| LLETDAGPAASEGAEQPPDLHCVL [GADD45A] | 4.82 ± 0.29 | 4.78 ± 0.18 | – | – |
| GGEAAHHTRSPYSTFYPPYHSPEL [NEUROD6] | 3.38 ± 0.2 | 3.58 ± 0.12 | – | – |
| GEKEVEALKKSADWVSDWSSRPEN [BNIP3L] | 4.78 ± 0.27 | 4.88 ± 0.39 | – | – |
| LLHGLNLLWRKQLFCDVTLTAQGQ [KLHL14] | 3.3 ± 0.17 | 2.88 ± 0.53 | – | – |
| AYHVPNRTLASGRLLSYRGERVAA [DNAAF3] | 3.31 ± 0.23 | 3.4 ± 0.14 | – | – |
| AFPYQYPPPPHPYNPHPGFPELGY [DVL3] | 2.35 ± 0.31 | 2.5 ± 0.35 | – | – |
| GKKYNWSCDDLMGGGGLHSVGTYI [GFOD1] | 2.13 ± 0.35 | 2.33 ± 0.29 | – | – |
| LLDAHILEWHDSLFQILSERQDMY [ZNF511] | 2.32 ± 0.4 | 2.17 ± 0.23 | – | – |
